Data as given in publication PMC10348809, “CsMYB15 positively regulates Cs4CL2-mediated lignin biosynthesis during juice sac granulation in navel orange”.

T1: MBP-CsMYB15 (Citrus sinensis Osbeck ('Lane Late' …, UniProt A0A7G7YA61 1-267))
T1 sequence: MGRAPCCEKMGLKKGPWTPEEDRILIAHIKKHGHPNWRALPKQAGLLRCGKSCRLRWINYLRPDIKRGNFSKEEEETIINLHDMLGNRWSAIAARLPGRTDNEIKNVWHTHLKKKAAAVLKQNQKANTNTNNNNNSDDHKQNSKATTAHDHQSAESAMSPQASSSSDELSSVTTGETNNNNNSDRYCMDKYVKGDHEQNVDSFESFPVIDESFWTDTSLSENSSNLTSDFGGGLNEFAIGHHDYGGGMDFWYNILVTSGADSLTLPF

B1: proCs4CL2 probe (dsDNA)
DNA 1: GCAAAAATAACTCACCATCCCCTTTGCTTCCC
DNA 2: GGGAAGCAAAGGGGATGGTGAGTTATTTTTGC
B2: proCs4CL2 unlabeled competitor (dsDNA)
DNA 1: B1 DNA 1
DNA 2: B1 DNA 2

Columns and labels:
MBP-CsMYB15 [1] = target: T1, MBP-CsMYB15; assay: EMSA; not stated (EMSA as in Shi et al., 2020 with minor modifications); details: protein: recombinant; tags: MBP; label: 5' FAM on S18; blunt
MBP-CsMYB15 [2] = target: T1, MBP-CsMYB15; assay: competition; dose-dependent competition against FAM probe N1; not stated (EMSA as in Shi et al., 2020 with minor modifications); details: protein: recombinant; tags: MBP; blunt

Binder | binding result (MBP-CsMYB15 [1]) | binding result (MBP-CsMYB15 [2])
B1 | binds | 
B2 |  | binds
